{"source": "paper PMC8467012", "about": "“Targeting ErbB3 Receptor in Cancer with Inhibitory Antibodies from Llama” (Biomedicines, 2021)", "binders": {"B1": {"name": "BCD090-M456 (VHH)", "VHH": "QVQLVQSGGGLVQSGGSLKLSCVASGGPFSTYLMGWFRQAPGKEREFVTAISRSGLNTYYADSVKGRFTISRDNAKNTVYLQMHSLKPEDTAVYHCAARRGGTNSGSYYFDRPAVSDEYDLWGQGTLVTVSS", "notes": "llama VHH from a phage display library; the product left after TEV cleavage; Lacks the Cys22-Cys92 disulfide bond (cysteines reduced); CDR H3 of 23 residues; also called anti-ErbB3 single-domain antibody BCD090-M456; source: E. coli SHuffle T7 express or BL21(DE3), cytoplasmic, purified (IMAC, TEV cleavage, negative IMAC, ion exchange); not shown: His tag, N-terminal, cleaved; SUMO, N-terminal, …"}, "B2": {"name": "BCD090-M2 (VHH)", "VHH": "QVQLVQSGGGLVQAGGSLRLSCAFSGRTFSMYTMGWFRQAPGKEREFVAANRGRGLSPDIADSVNGRFTISRDNAKNTLYLQMDSLKPEDTAVYYCAADLQYGSSWPQRSSAEYDYWGQGTTVTVSS", "notes": "llama VHH from a phage display library; the product left after TEV cleavage; no PDB id is printed; also called anti-ErbB3 single-domain antibody BCD090-M2; source: E. coli SHuffle T7 express, cytoplasmic, purified (IMAC, TEV cleavage, negative IMAC, ion exchange); not shown: His tag, N-terminal, cleaved; SUMO, N-terminal, cleaved"}, "B3": {"name": "BCD090-P1 (VHH)", "VHH": "EVQLVQSGGGLVQPGGSLRLSCAASGRTSSKYAMGWFRQAPGKGTEFVATISWSDGSTYYADSVEGRFTISRDNAKNTVYLQMNSLKPEDTAVYYCAAAVDVLAGTFEYEYDYWGQGTLVTVSS", "notes": "llama VHH from a phage display library; the product left after TEV cleavage; Monomer by SEC; One disulfide bond Cys22-Cys92; also called anti-ErbB3 single-domain antibody BCD090-P1; source: E. coli SHuffle T7 express or BL21(DE3), cytoplasmic, purified (IMAC, TEV cleavage, negative IMAC, ion exchange); not shown: His tag, N-terminal, cleaved; SUMO, N-terminal, cleaved"}, "B4": {"name": "pelB-BCD090-P1-His5 (VHH)", "VHH": "B3 VHH", "notes": "as the VHH of m1 (BCD090-P1), with the uncleaved pelB leader and a histidine tag; also called BCD090-P1 purified from the periplasm; periplasmically expressed BCD090-P1; source: E. coli, periplasmic expression (pET22b), purified; not shown: pelB leader (uncleaved), N-terminal, kept; His5, C-terminal, kept"}, "B5": {"name": "BCD090-P1 conjugated with Cy5 or AF488 (VHH)", "VHH": "B3 VHH", "notes": "as the VHH of m1 (BCD090-P1); also called labeled BCD090-P1; source: E. coli, purified, then labelled with sulfo-Cy5 or AF488 NHS ester"}}}
{"target": "T1, human ErbB3 extracellular domain (ECD, residues 21-643) (Homo sapiens, UniProt P21860)", "T1 construct": "ErbB3 (HER3) receptor, human, extracellular domain, residues 21-643; secreted with the Igκ leader of the pEE vector; Glycosylated, MW 75 kDa; also called ErbB3 ECD; HER3 extracellular domain; source: CHO-T-HC cells, transiently transfected, secreted, purified (IMAC on HisTrap, SEC on Superdex 200 pg)", "T1 sequence (P21860 21-643 R488S)": "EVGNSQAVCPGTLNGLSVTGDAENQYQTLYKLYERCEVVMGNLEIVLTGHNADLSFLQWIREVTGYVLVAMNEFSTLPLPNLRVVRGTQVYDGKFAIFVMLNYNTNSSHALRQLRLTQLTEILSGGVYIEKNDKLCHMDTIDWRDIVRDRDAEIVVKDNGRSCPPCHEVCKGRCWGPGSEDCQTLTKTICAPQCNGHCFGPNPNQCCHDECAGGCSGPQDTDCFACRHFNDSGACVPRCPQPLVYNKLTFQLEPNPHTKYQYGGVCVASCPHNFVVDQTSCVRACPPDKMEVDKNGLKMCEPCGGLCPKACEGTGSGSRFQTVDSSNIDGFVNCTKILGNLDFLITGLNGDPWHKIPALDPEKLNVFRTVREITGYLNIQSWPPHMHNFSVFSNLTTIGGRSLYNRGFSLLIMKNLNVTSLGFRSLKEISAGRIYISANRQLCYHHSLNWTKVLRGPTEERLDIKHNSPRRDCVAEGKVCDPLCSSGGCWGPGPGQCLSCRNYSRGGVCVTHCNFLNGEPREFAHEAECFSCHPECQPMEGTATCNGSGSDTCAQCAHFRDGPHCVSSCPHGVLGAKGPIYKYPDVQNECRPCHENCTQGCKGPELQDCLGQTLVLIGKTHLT", "assay": "SPR; ErbB3 ECD immobilised on a CM5 chip by amine coupling; Biacore T200, 37 °C; antibodies in HBS (10 mM HEPES pH 7.4, 150 mM NaCl) with 50 µg/mL BSA; sensograms fitted globally by a 1:1 model at three concentrations near KD; geometric means of two experiments", "conditions": "both partners purified", "units": {"Kd": "nM", "koff": "s⁻¹", "kon": "M⁻¹ s⁻¹"}}
{"binder": "B1", "Kd": "3100 ± 200", "koff": 0.0022, "kon": 720}
{"binder": "B2", "Kd": "16.5 ± 2", "koff": 0.0036, "kon": 220000}
{"binder": "B3", "Kd": "1.6 ± 0.2", "koff": 0.003, "kon": "1.9e+06"}
{"binder": "B4", "Kd": "5.1 ± 0.9", "koff": 0.0044, "kon": 870000}
{"target": "T1, human ErbB3 extracellular domain (ECD, …)", "assay": "SPR; ErbB3 ECD immobilised on a CM5 chip by amine coupling; Biacore T200, 37 °C; HBS with 50 µg/mL BSA; equilibrium response read 5 s before injection end, fitted by the Hill equation; geometric means of two experiments", "conditions": "both partners purified", "units": {"Kd": "nM"}}
{"binder": "B1", "Kd": "8600 ± 800"}
{"binder": "B2", "Kd": "15 ± 1"}
{"binder": "B3", "Kd": "1.61 ± 0.06"}
{"binder": "B4", "Kd": "6.5 ± 0.9"}
{"target": "T2, human ErbB3 extracellular subdomain 3 (ECD^III, residues 329-532) (Homo sapiens, UniProt P21860)", "T2 construct": "ErbB3 (HER3) receptor, human, extracellular subdomain 3, residues 329-532; secreted with the Igκ leader of the pEE vector; Glycosylated, MW ~25 kDa; also called ErbB3 ECD^III; source: CHO-T-HC cells, transiently transfected, secreted, purified (CaptureSelect C-tag resin)", "T2 sequence (P21860 329-532)": "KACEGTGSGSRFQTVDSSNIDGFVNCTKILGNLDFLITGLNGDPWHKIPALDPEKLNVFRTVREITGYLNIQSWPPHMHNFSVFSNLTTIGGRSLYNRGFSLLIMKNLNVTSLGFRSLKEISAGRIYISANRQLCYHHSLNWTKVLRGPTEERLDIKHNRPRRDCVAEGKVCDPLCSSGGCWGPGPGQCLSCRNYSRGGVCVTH", "assay": "SPR; ErbB3 ECD^III immobilised on a CM5 chip by amine coupling; Biacore T200, 37 °C; HBS with 50 µg/mL BSA", "conditions": "both partners purified"}
{"binder": "B1", "binding result": "no binding"}
{"binder": "B2", "binding result": "no binding"}
{"binder": "B3", "binding result": "binds"}
{"target": "T3, ErbB3 receptor on cancer cells (Homo sapiens, UniProt P21860)", "T3 construct": "ErbB3 (HER3) receptor, endogenous on human cancer cell lines; also called HER3; source: endogenous, on live MCF-7, SK-BR-3, BT-474 and Hep G2 cells", "T3 sequence (P21860 20-1342)": "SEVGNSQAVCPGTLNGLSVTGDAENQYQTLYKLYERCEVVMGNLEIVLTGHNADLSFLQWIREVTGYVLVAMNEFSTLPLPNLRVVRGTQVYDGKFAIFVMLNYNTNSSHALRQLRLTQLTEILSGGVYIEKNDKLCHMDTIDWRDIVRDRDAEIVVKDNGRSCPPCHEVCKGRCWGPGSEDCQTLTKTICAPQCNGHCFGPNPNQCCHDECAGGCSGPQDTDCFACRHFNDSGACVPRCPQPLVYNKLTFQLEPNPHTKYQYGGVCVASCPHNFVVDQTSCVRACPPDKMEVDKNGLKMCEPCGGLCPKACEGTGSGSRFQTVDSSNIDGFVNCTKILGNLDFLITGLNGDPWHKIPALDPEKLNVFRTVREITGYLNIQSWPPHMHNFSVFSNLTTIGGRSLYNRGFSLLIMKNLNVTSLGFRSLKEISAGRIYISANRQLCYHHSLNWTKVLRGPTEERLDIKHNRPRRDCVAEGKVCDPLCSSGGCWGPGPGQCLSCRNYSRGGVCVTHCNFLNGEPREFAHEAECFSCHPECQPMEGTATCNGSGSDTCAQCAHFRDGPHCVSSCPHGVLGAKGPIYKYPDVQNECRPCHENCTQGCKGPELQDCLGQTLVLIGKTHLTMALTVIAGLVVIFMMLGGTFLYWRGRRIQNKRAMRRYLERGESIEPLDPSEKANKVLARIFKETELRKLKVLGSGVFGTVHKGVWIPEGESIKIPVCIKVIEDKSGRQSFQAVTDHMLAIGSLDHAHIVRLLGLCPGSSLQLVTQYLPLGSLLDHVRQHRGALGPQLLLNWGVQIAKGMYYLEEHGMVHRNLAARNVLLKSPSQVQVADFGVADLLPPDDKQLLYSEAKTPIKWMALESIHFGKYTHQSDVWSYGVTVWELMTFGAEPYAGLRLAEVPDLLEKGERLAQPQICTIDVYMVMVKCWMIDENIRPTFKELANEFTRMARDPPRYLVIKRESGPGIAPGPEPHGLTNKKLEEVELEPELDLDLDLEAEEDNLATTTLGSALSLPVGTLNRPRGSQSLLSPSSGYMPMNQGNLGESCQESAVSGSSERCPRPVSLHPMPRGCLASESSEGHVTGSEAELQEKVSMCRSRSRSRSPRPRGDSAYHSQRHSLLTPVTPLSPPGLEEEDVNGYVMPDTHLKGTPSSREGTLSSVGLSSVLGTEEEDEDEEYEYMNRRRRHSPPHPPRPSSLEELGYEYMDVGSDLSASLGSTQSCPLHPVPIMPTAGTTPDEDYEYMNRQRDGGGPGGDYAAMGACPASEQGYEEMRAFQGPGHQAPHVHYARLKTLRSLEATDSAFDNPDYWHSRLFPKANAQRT", "assay": "immunostaining of cells or tissue; live cells stained 30 min in PBS with 5 µg/mL directly labelled antibody and Hoechst 33342; confocal microscopy; MCF-7, SK-BR-3, BT-474, Hep G2; K562 as negative control", "conditions": "one partner purified"}
{"binder": "B5", "binding result": "binds"}
{"target": "T4, extracellular domain of ErbB2 (Homo sapiens (assumed), UniProt P04626)", "T4 construct": "ErbB2 (HER2) receptor, extracellular domain; also called ErbB2 ECD", "assay": "SPR; test of antibody specificity against the extracellular domain of ErbB2 (Figure S5); Biacore T200, CM5 chip, 37 °C", "conditions": "both partners purified"}
{"binder": "B2", "binding result": "no binding"}
{"binder": "B3", "binding result": "no binding"}
